{"source": "paper PMC10013841", "key": {"[1]": {"target": "baculovirus-produced trimeric Spike (SARS-CoV-2) (UniProt P0DTC2)", "assay": "ITC"}, "[2]": {"target": "SARS-CoV-2 Spike glycoprotein (WH-1), trimeric, HEK293-produced (S1+S2) (SARS-CoV-2) (UniProt P0DTC2)", "assay": "ITC"}, "[3]": {"target": "SARS-CoV-2 Spike glycoprotein (Omicron), trimeric, HEK293-produced (SARS-CoV-2) (UniProt P0DTC2)", "assay": "ITC"}, "[4]": {"target": "SARS-CoV-2 Spike glycoprotein (WH-1), trimeric, HEK293-produced (S1+S2) (SARS-CoV-2) (UniProt P0DTC2)", "assay": "ELISA"}}}
{"substance": "cyanovirin-N (from UniProt P81180 1-101) (natural protein)", "values": [{"measurement": "Kd", "setting": "[1]", "value": 13.4, "unit": "nM"}, {"measurement": "stoichiometry N (CV-N per Spike monomer)", "setting": "[1]", "value": 2.4}, {"measurement": "Kd", "setting": "[2]", "value": 28.1, "unit": "nM"}, {"measurement": "stoichiometry N (CV-N per Spike monomer)", "setting": "[2]", "value": 2}, {"measurement": "Kd", "setting": "[3]", "value": 15.4, "unit": "nM"}, {"measurement": "stoichiometry N (CV-N per Spike monomer)", "setting": "[3]", "value": 2}, {"measurement": "EC50", "setting": "[4]", "value": 2.9, "unit": "nM"}]}
